The values below come from patent US20180057581A1 (MorphoSys, published 2018).

Positions count from the first letter of the chain named.

What is called Kd is the constant that tells how readily two partners part at equilibrium. A word on the IC50: it is the point on the concentration scale where inhibition reaches its midpoint.

The target in assay [1] is T1, human M-CSF (human, UniProt P09603 33-255, limits assumed).
T1 construct: also called M-CSF (human); CSF-1
T1 sequence: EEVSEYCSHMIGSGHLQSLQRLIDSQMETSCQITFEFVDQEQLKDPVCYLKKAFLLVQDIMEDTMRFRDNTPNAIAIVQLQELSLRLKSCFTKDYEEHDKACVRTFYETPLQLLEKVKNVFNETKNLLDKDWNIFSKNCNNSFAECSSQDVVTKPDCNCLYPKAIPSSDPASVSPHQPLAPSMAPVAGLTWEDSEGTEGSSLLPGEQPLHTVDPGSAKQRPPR
As to the kind of experiment: ELISA. As for the experimental part:
(§1) BSA was used as a negative control substrate.
(§2) After blocking of plates with 5% skim milk powder in PBS, Fab-containing E. coli lysates, IgG-containing cell culture supernatants or purified IgG or Fab proteins were added. Binding of Fabs or IgGs was detected by F(ab)₂ specific goat anti-human IgG conjugated to alkaline phosphatase (Dianova Cat# 109-055-097; diluted 1:5000) using Attophos fluorescence substrate (Roche, #11681982001). Fluorescence emission at 535 nm was recorded with excitation at 430 nm.
For orientation: An ELISA detects its analyte on a solid surface through an enzyme-linked reagent.

For assay [2], the target named is T2, Recombinant cynomolgus monkey sgM-CSF (cynomolgus (Macaca fascicularis), UniProt P09603 33-255 (human entry), limits assumed).
T2 construct: used also where only 'cynomolgus M-CSF' is printed (ELISA result, SET); also called cynomolgus sgM-CSF; cyno sgM-CSF
T2 chain: T1 sequence with V186M, E192D
The experiment in a line: ELISA. As for the experimental part: as §1, §2

The target in assay [3] is T3, Recombinant human sgM-CSF (human, UniProt P09603 33-255).
T3 sequence: T1 sequence
As to the kind of experiment: cell-based or functional assay.

Assay [4] addresses T2, Recombinant cynomolgus monkey sgM-CSF. The experiment in a line: cell-based or functional assay.
The target in assay [5] is Antitrypsin (human) (human, UniProt P01009 25-418). The experiment in a line: MSD specificity profiling, coated protein, Camille at 10 nM. As for the experimental part:
(§3) For this specificity profiling test the different proteins and controls were coated on two 384-well MSD plates with a concentration of 1 μg/ml at 4° C. over night. Plates were blocked with BSA and washed three times with PBS with 0.05% (v/v) Tween 20. Antibody samples were diluted to 100 nM and 10 nM in assay buffer (PBS with 0.5% (w/v) BSA, 0.05% (v/v) Tween 20). […] Samples and controls were incubated for three hours at room temperature. The plates were washed three times and 30 μl detection antibody (ECL-labeled anti-human Fab) were added per well and incubated for 1 h. After washing, MSD Read Buffer T with surfactant was added and electrochemiluminescence signals were detected using a Sector Imager 6000 (Meso Scale Discovery, Gaithersburg, Md., USA).

In assay [6] the target is Cell surface receptor 1 (human) (human). The description is as above. As to the method:
as §3

The target of assay [7] is Cytokine 2 (human) (human). The assay is described as above. As to the method: as §3
For assay [8], the target named is Trypsin inhibitor (Soybean) (Soybean). The description is as above. As to the method:
as §3

Assay [9] concerns the target Myoglobin (horse) (horse, UniProt P68082 2-154). The description is as above. As for the experimental part:
as §3

For assay [10], the target named is T4, Ovalbumin (chicken) (chicken, UniProt P01012 2-386).
T4 sequence (looked up): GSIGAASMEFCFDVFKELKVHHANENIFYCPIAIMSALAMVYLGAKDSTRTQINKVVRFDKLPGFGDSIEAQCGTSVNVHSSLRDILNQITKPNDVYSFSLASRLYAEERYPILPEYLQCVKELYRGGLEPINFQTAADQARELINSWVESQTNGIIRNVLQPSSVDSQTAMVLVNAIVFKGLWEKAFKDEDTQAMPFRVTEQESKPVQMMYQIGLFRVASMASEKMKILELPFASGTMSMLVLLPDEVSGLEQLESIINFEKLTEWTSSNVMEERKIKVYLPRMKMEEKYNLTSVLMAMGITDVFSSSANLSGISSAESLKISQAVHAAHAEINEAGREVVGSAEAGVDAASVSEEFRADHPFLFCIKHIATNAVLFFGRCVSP
The assay is described as above. As for the experimental part:
as §3

The target in assay [11] is T5, RNase B (cow) (cow, UniProt P61823 27-150).
T5 sequence (looked up): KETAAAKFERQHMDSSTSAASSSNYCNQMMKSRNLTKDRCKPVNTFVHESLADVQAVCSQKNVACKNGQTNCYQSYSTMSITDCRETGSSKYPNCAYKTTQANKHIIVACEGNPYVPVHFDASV
Described as above. As to the method:
as §3

Assay [12] addresses Anti-human Fab (Dianova, # 109-005-097). The assay is described as above. As for the experimental part:
as §3

Assay [13] deals with Anti-human Fc (Dianova, #109-005-098). The description is as above. As for the experimental part: as §3
The target is the same in assay [14]. As to the kind of experiment: MSD specificity profiling, coated protein, Camille at 100 nM. As for the experimental part: as §3
Assay [15] concerns the target T3, Recombinant human sgM-CSF. The experiment in a line: Table 12 summary, criterion Binding, Human M-CSF; assay and antibody format not named there. As to the method:
The monovalent affinity of the antibodies of the present disclosure was determined by soluble equilibrium titration (Haenel et al. (2005) Anal Biochem 339, 182-4).

Assay [16] deals with T2, Recombinant cynomolgus monkey sgM-CSF. The experiment in a line: Receptor binding assay, inhibition of cynomolgus M-CSF binding to M-CSF receptor (competitor CSF1-R-Fc); Table 12 summary. As to the method:
Complexes were then transferred to 384 well MSD plates coated with 2 μg/ml of the corresponding receptor. Plates were then washed and incubated with the streptavidin/ECL conjugate for 2 h with shaking at room temperature. 35 μl MSD read buffer T with surfactant was then added per well and subsequently measured using MSD Sector Imager 6000.

Trypsin inhibitor (Soybean) (Soybean), sequence (P01070 25-205): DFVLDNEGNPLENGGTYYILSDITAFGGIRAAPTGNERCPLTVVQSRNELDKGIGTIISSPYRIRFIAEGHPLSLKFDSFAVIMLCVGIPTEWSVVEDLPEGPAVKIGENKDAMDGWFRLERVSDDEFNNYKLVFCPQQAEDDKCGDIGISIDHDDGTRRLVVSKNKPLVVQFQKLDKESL
Antitrypsin (human), sequence (P01009 25-418 limits assumed): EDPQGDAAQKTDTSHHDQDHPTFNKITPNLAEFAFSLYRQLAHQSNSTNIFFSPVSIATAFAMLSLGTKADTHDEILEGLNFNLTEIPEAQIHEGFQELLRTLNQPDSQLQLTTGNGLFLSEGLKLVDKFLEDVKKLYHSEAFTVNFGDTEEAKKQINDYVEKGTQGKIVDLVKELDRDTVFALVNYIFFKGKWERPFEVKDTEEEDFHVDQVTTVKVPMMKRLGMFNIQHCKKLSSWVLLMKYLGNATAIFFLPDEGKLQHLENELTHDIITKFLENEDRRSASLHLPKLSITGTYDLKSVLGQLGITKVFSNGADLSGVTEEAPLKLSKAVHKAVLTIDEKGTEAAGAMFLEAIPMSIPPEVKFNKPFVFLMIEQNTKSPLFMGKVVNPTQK
Myoglobin (horse), sequence (P68082 2-154 limits assumed): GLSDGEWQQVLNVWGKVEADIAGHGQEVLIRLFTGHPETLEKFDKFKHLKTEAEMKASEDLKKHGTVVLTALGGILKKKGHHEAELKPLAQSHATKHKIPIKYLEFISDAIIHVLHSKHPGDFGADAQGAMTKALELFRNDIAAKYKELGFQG

B1: Camille (format not stated) (antibody, V domains shown)
VH: QVQLQQSGPGLVKPSQTLSLTCAISGESVSTSSAAWNWIRQSPSRGLEWLGRTYYRSKWKHEYAVSVKSRITINPDTSKNQFSLQLNSVTPEDTAVYYCARDRYYYSAFDYWGQGTLVTVSS
VL: QSALTQPASVSGSPGQSITISCTGTSSDVGGYNSVSWYQQHPGKAPKLLIYAVSNRPSGVSNRFSGSKSGNTASLTISGLQAEDEADYYCASYDERFTRVFGGGTKLTVLG
notes: also called Antibody Camille
On to B1, for which the ELISA fluorescence units in [1] and in assay [2] was more than 35000 units throughout. For the same molecule, the “Cell viability assay (IC50), Human M-CSF” value in [3] was determined as 2 pM. In assay [4], the “Cell viability assay (IC50), Cynomolgus M-CSF” value stood at 3 pM. The “signal normalized to reference antibody MOR03207” value in assay [5], in assay [6], in assay [7], in assay [8], in assay [9] and in assay [10] was 1 ratio throughout. Moreover, the “signal normalized to reference antibody MOR03207” value in assay [11], in assay [12], in [13] and in assay [14] was 1 ratio each time. The Kd in assay [15] amounted to 18 pM. The IC50 in [16] was found to be 6 pM.
